Columns and labels:
MS2 coat protein [1] = test: apparent KD of MS2 coat protein, switch OFF state (with FMN for OFF switches, without FMN for ON switches); designed switch direction (-1 OFF switch, 1 ON switch): -1; higher = weaker reporter binding; settings: FMN input: 0 or 200 uM; Eterna round: R93 (includes R88 designs)
Method in brief: (§1)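 Designed RNA switches were made by on-chip transcription from Illumina sequencing clusters and then titrated with SNAP-549-labelled MS2 coat protein. Twofold steps ran from 0.7 or 1.5 nM to 3 µM, each lasting 0.8–1.5 h early and 10–20 min late, in 100 mM Tris-HCl pH 7.5, 80 mM KCl, 4 mM MgCl2, without or with constant ligand. Apparent KD is the per-design median of normalised cluster binding-curve fits.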

MS2 coat protein [2] = test: apparent KD of MS2 coat protein, switch ON state; designed switch direction (-1 OFF switch, 1 ON switch): -1; higher = weaker reporter binding; settings: FMN input: 0 or 200 uM; Eterna round: R93 (includes R88 designs)
Method in brief: as §1

Sequence	apparent KD of MS2 coat protein (MS2 coat protein [1])	apparent KD of MS2 coat protein (MS2 coat protein [2])
AGCUAGUCAGGAUAUACGAAAAUGAUAGAAGACGUAAGGGAACAUGAGGAUCACCCAUGUAGAAGGGACUAGCA [Diamond 47]	63.1 nM	24.7 nM
AACAGGACAGGAUAUACAUGAGGAUCACCCAUGUAGGAAUUAAGCAGAGUACCACACAGUAGAAGGGUCAUGGA [Ruby 26]	30.4 nM	27.6 nM
AAACACGGAGGAUAUACACCAUACAAACCUCUAAACAAAAAACAUGAGGAUCACCCAUGUAGAAGGCCGAACAA [Default title]	28 nM	24.7 nM
AACUAGCUAGGAUAUACAUGAGGAUCACCCAUGUAAAAAAAAAAAAAAAGAUCAAAAUGUAGAAGGAGCUAGUA [Design 2 - Brourd - Exclusion 3]	58.5 nM	59.6 nM
AACGAGUCAGGAUAUACAAAAAAUAAAUAAAUAAAAUAAAAGUAGAAGGGACAUGAGGAUCACCCAUGUAAAUA [JR_Exc004_Sub020]	44 nM	59.3 nM
CUUAUGUGAGGAUAUGUACAGAAAAAACUGGGUGUAACUGUACAGAAGGCACAUGAGGAUCACCCAUGUGCAAA [EX4 388: S S Pseudoknot 13]	56.8 nM	70.2 nM
AUCAACCUAGGAUAUACAUGAGGAUCACCCAUGUACAGAUACAACAAGGGAAACACACGUAGAAGGAGGAAGAU [JR_Exc003_Sub1205]	52.1 nM	24.4 nM
AAGAACCAAGGAUAUACAUGAGGAUCACCCAUGUAAAAGAAAGAAAAGGGAAAGAAAAGUAGAAGGUGGAAGAA [Userkheperure Seti II]	27.3 nM	25.7 nM
AAAGGGUCAGGAUAUCGUUUAAUAAUAAAAUAAAUAAAGAACGAGAAGGGACAUGAGGAUCACCCAUGUAUAAA [May 76]	89.8 nM	65.3 nM
AGCUAGUCAGGAUAUACGAAAAUGUAAAAAGAAGUGAAGGGACAUGAGGAUCACCCAUGUAGAAGGGACUAGAA [74%, Web mod - With 4 less C's]	116 nM	58 nM
CUCUUGUCAGGAUAUAGAAGAAAAGAAGAGAAAGAAAAGAACUAGAAGGGACAUGAGGAUCACCCAUGUAAGAA [EteRNA is fun!]	49.2 nM	48.7 nM
AAAGAUGCAGGAUAUACAUGAGGAUCACCCAUGUUAGACCUGAAAAAGGGAAAAGAAAGUAGAAGGGCAUAAUA [Ex 3 May 31]	11.5 nM	12.8 nM
AGUAUGCGAGGAUAUACAUGAGGAUCACCCAUGUGAGAGAUAAAAGUGAGAAAGACAUGUAGAAGGCGCGUACA [JL Lego Mod 24]	27 nM	38.9 nM
CUCAAGUAAGGAUAUAGAAGAAAAGAAGAGAAAGAAAAGAACUAGAAGGUACAUGAGGAUCACCCAUGUAAGAA [EteRNA is fun!]	21.5 nM	41.6 nM
AACAGUACAGGAUAUACAUGAGGAUCACCCAUGUGAGAAUUAAGUAGAUUGCCACAAAGUAGAAGGGUACUGGA [Ruby 98]	80.9 nM	59.3 nM
AAAAAACAUGAGGAUCACCCAUGUGAGGAUAUGACGUAAAUAAAGAAAUAAGAAAUCGUCAGAAGGCACAAAAA [Mat - Exclusion 1 - Eli mod - D73]	41.7 nM	28.6 nM
GAAGAACAUGAGGAUCACCCAUGUCAGGAUAUACAGAAGGGAAUAAAAUAACCUGAAAGUAGAAGGGACAAGAA [Ex 1 May 42]	57.2 nM	29 nM
AAGAGGCUAGGAUAUACAUAUCUGAUGACUCAUCCUAAAACACAUGAGGAUCACCCAUGUAGAAGGAGCGAAUG [Anledi]	16.5 nM	19.2 nM
AAAAAACAUGAGGAUCACCCAUGUAAGGAUAUCUAAAAUAAAAGAAAAAUAAAGAAAAGGAGAAGGUACAUGCA [JL wbt mod 26]	34.5 nM	32 nM
AAGAAGGGAGGAUAUACAAAAUAAAAGAAAAGAAAGAAAGAACAUGAGGAUCACCCAUGUAGAAGGCCUAAGAA [Merneferre Ay I]	8.74 nM	23.8 nM
AAAAAACAUGAGGAUCACCCAUGUGAGGAUAUUAAAAAUAAGAAGGCAUAAAAAAAAAUAAGAAGGCACAUGAA [Meechl MS2 Ex1]	33.2 nM	27.9 nM
AAAAACUGAGGAUAUACAUGAGGAUCACCCAUGUGAAAGAAAGAAAAAAGAAAAGAAAGUAGAAGGCAGAAAAA [Ruby 76]	29.5 nM	34 nM

From the supplement of paper PMC9170038
